From IntAct's records for PubMed 26235546

Assays:
pspf_ecoli pspF [1] = target: pspf_ecoli pspF (UniProt P37344)
pspf_ecoli pspF [2] = target: pspf_ecoli pspF (UniProt P37344); remark: listed apart in the source

Chain of pspf_ecoli pspF (P37344 whole entry): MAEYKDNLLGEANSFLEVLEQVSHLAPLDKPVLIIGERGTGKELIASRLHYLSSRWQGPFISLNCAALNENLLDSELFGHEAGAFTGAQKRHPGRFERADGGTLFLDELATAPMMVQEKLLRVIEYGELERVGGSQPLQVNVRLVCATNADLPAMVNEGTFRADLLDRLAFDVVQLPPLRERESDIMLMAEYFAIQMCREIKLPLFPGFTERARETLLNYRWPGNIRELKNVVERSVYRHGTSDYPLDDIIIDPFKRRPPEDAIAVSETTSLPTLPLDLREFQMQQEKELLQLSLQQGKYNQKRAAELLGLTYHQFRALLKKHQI

| Substance | effect of a mutation on the interaction (pspf_ecoli pspF [1]) | effect of a mutation on the interaction (pspf_ecoli pspF [2]) |
| --- | --- | --- |
| Phage shock protein A (Escherichia coli (strain K12)) (from UniProt P0AFM6) E37A | with no effect | decreasing interaction strength |
| Phage shock protein A (Escherichia coli (strain K12)) (from UniProt P0AFM6) R59E |  | with no effect |
